Source: patent US20250122304A1, “PRE-TARGETING” (Precirix N.V., priority 2022, published 2025)

Assays:
[1] = biological target: T1, hFOLR1 (Homo sapiens, UniProt P15328); assay: SPR click reaction with Tz-R3B23, span of relative response (Example 8, Table 20); conditions: Biacore
Procedure: Next, the click reaction was verified using SPR. 5 μg/mL recombinant hHER2 in 10 mM NaOAc pH 4.5 or 5 μg/mL recombinant hFOLR1 in 10 mM NaOAc pH 5.5 was immobilized on a Biacore Sensor Chip CM5 to a target level of 740 Response Units (RU) and 250 RU, respectively. […] For the VHH7 binding FOLR1 a VHH concentration of 5 nM was used, and the association and dissociation phases took 450 s and 900 s, respectively. […] As a negative control for the click reaction, we injected assay buffer (HBS) instead of the Tz-R3B23 over the flow cell. Using the Biacore evaluation software we determined the difference between the relative response before and after the click reaction with either the Tz-R3B23 or the negative control assay buffer. This difference is further on referred to as span.

[2] = biological target: T1, hFOLR1; assay: SPR (Biacore) binding kinetics before and after TCO conjugation (Example 8, Table 19)
Excerpt: Using Surface Plasmon Resonance (Biacore) we determined the binding kinetics of the unconjugated and TCO-conjugated VHH (TCO-VHH) for the respective target as described earlier for VHH2 and VHH8 (EP3718574A1).

T1 sequence (P15328 25-234): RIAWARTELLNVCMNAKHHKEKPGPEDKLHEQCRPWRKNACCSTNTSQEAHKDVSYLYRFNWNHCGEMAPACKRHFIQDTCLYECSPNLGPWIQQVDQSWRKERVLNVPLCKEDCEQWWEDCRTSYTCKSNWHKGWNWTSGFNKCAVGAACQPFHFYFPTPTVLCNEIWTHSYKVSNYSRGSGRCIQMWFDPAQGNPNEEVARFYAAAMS

Span of the Relative Response ([1]; TCO-VHH bound on hFOLR1, Tz-R3B23 at 100 times molar excess): 12.3 RU
Span of the Relative Response ([1]; Unconjugated VHH bound on hFOLR1, Tz-R3B23 at 100 times molar excess): 0.6 RU
binding kinetics after TCO conjugation [2]: barely affected
koff ([2]; Post conjugation (TCO)): 0.000192 s⁻¹
kon ([2]; Post conjugation (TCO)): 2.61e+06 M⁻¹ s⁻¹
koff ([2]; Pre conjugation): 0.000167 s⁻¹
kon ([2]; Pre conjugation): 3.54e+06 M⁻¹ s⁻¹
B1: VHH2: VHH, target FOLR1, SEQ ID NO 21 (protein)
VHH: DVQLVESGGGLVQPGGSLRLSCAASESIFSRNHMSWYRQAPGKQRELAAIITSDGNTNYPDSVKGRFTISRDNAKNTVYLQMNSLKPEDTAVYYCNTFGRSVAGFYDYWGQGTQVTVSS
modifications: Full length sequence of VHH2
